The target of this experiment is recombinant HA Victoria (B/Brisbane/60/2008) fused to an HIS-Tag (influenza B virus B/Brisbane/60/2008 (Victoria lineage)). Put plainly: SPR. In general terms: Surface plasmon resonance follows binding to a sensor surface in real time, without labels.

As for “NKp46-Ig (extracellular portion of human NKp46 fused to the Fc portion of human IgG1) (from UniProt O76036 22-258) (Fc fusion)”, the fold lower affinity than to the HA of IAV is 7 fold.
